This is an account of results in US5766581, “Method for treating mammals with monopegylated proteins that stimulates megakaryocyte growth and differentiation” (Amgen Inc., dated 1998).

In assay [1] the target is human Mpl receptor, full length, on cells (human) (UniProt P40238).
Assay [2] concerns the target murine Mpl receptor, full length, expressed on 32D cells (subclone 1A6.1) (murine) (UniProt Q08351).
For assay [3] the target is unchanged. The source holds these as a separate data set.
Assay [4] deals with murine Mpl receptor, full length, expressed on 32D cells (subclone 1A6.1) (murine, UniProt Q08351). In words: cell-based or functional assay.
Assay [5] has as its target human Mpl receptor, full length, on cells (human, UniProt P40238). Briefly: cell-based or functional assay.

Molecule “25 kd canine Mpl ligand purified from aplastic canine plasma” gave a Human Meg assay (units/mg) in assay [1] of 1.4e+10 units/mg. The same molecule displayed a 1A6.1 assay (units/mg) in assay [2] of 1.05e+10 units/mg. In assay [3], the 1A6.1 cell growth, fraction diluted 1:45000 (cells per well) was found to be 6000.

In turn, “31 kd canine Mpl ligand purified from aplastic canine plasma” gave a Human Meg assay (units/mg) in assay [1] of 5.7e+09 units/mg. In assay [2], this molecule yielded a 1A6.1 assay (units/mg) of 6.52e+09 units/mg.

B1: human MGDF-3 (amino acids 1-265 of SEQ ID NO: 27) (ligand)
chain: SPAPPACDLRVLSKLLRDSHVLHSRLSQCPEVHPLPTPVLLPAVDFSLGEWKTQMEETKAQDILGAVTLLLEGVMAARGQLGPTCLSSLLGQLSGQVRLLLGALQSLLGTQLPPQGRTTAHKDPNAIFLSFQHLLRGKDFWIVGDKLHCLSQNYWLWASEVAAGIQSQDSWSAEPNLQVPGPNPRIPEQDTRTLEWNSWTLSWTLTQDPRSPGHFLRNIRHRLPATQPPAWIFSFPNPSSYWTVYALPSSTHLAHPCGPAPPPAS
For B1, the “U/ml (- mur-MPL-X), 1A6.1 cells” value in assay [4] is 0 U/ml. The “Megakaryocytes per Well (-mur-MPL-X)” value in assay [5] amounted to 2 megakaryocytes per well.

B2: human MGDF-2 (amino acids 1-174 of SEQ ID NO: 25) (ligand)
chain: SPAPPACDLRVLSKLLRDSHVLHSRLSQCPEVHPLPTPVLLPAVDFSLGEWKTQMEETKAQDILGAVTLLLEGVMAARGQLGPTCLSSLLGQLSGQVRLLLGALQSLLGTQLPPQGRTTAHKDPNAIFLSFQHLLRGKVRFLMLVGGSTLCVR
As for B2, the “U/ml (- mur-MPL-X), 1A6.1 cells” value in assay [4] was 12800 U/ml. For the same molecule, the “Megakaryocytes per Well (-mur-MPL-X)” value in assay [5] is 100 megakaryocytes per well.
